Source: PMC2175199 (The Journal of Cell Biology, 2000)
Each block holds one binder with its values, some of them ahead of it.

Key:
hSA2 = target: T1, hSA2 (human (endogenous in HeLa), UniProt Q8N3U4 1-1231); experiment: co-IP
T1 sequence: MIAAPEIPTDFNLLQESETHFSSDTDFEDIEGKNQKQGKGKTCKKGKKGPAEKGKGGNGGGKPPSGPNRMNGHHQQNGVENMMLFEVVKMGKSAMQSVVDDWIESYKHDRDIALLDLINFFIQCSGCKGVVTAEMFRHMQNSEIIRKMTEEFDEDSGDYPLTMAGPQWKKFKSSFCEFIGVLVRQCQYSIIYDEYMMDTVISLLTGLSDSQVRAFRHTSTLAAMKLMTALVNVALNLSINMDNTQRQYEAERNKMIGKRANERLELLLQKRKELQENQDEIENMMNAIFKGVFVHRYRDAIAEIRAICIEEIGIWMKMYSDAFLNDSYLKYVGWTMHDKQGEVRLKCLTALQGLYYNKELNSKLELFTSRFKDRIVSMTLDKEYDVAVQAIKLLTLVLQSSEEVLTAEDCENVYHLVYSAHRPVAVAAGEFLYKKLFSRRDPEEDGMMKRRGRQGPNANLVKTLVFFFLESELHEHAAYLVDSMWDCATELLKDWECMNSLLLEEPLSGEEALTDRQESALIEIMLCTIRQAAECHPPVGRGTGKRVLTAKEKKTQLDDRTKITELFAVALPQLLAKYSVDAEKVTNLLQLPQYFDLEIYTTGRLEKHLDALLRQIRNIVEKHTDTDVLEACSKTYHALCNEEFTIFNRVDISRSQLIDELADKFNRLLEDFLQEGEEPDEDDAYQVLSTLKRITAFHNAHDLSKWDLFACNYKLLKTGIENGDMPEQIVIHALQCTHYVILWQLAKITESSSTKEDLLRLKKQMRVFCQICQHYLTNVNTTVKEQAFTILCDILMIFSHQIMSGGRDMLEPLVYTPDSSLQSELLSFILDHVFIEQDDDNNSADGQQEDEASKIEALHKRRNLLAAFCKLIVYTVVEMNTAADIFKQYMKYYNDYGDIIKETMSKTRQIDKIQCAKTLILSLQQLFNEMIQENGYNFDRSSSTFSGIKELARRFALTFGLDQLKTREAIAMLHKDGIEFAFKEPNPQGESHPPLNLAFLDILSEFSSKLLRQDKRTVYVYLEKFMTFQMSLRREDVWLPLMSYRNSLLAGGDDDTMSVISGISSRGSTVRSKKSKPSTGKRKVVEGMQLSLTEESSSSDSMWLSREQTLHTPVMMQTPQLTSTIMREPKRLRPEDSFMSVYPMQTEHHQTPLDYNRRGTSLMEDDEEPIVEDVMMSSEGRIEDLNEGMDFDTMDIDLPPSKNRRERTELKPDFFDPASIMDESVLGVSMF

hSA1 = target: T2, hSA1 (human (endogenous in HeLa), UniProt Q8WVM7 1-1258); experiment: co-IP
T2 sequence: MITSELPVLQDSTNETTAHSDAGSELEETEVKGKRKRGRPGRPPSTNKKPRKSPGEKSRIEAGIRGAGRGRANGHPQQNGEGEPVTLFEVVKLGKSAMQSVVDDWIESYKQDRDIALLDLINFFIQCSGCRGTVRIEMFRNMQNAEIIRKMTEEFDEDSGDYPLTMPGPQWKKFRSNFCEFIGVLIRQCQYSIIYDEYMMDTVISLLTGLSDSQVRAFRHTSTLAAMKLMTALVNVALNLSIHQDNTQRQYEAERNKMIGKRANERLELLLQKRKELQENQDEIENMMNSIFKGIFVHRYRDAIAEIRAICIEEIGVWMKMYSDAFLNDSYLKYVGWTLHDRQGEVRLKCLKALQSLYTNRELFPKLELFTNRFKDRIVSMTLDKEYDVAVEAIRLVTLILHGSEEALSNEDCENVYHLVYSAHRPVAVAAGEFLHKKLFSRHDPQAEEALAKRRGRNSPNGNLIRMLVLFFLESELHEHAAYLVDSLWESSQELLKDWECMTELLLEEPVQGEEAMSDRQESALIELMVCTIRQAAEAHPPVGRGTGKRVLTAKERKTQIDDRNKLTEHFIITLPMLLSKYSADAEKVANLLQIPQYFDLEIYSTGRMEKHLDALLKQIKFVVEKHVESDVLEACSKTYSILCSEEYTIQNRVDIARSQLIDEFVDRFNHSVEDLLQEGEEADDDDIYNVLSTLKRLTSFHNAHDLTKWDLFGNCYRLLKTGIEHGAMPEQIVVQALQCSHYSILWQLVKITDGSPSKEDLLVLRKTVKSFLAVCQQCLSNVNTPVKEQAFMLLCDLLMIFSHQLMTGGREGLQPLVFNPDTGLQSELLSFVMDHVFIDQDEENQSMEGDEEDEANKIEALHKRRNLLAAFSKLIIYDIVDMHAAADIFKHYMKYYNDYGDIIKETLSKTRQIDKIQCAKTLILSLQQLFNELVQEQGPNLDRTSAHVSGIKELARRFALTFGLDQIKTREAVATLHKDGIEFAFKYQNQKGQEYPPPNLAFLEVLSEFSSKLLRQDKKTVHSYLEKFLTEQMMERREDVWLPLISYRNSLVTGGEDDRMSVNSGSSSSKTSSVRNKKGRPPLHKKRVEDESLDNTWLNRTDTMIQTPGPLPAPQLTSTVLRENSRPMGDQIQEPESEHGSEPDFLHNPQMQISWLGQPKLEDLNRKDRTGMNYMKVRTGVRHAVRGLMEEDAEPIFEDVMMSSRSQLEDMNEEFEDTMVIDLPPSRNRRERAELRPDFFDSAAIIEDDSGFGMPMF

percent removed from the extract by anti-XSA2 (hSA2): ~75%
percent removed from the extract by anti-XSA1 (hSA1): ~25%
B1: hSMC1 (natural protein)
chain: MGFLKLIEIENFKSYKGRQIIGPFQRFTAIIGPNGSGKSNLMDAISFVLGEKTSNLRVKTLRDLIHGAPVGKPAANRAFVSMVYSEEGAEDRTFARVIVGGSSEYKINNKVVQLHEYSEELEKLGILIKARNFLVFQGAVESIAMKNPKERTALFEEISRSGELAQEYDKRKKEMVKAEEDTQFNYHRKKNIAAERKEAKQEKEEADRYQRLKDEVVRAQVQLQLFKLYHNEVEIEKLNKELASKNKEIEKDKKRMDKVEDELKEKKKELGKMMREQQQIEKEIKEKDSELNQKRPQYIKAKENTSHKIKKLEAAKKSLQNAQKHYKKRKGDMDELEKEMLSVEKARQEFEERMEEESQSQGRDLTLEENQVKKYHRLKEEASKRAATLAQELEKFNRDQKADQDRLDLEERKKVETEAKIKQKLREIEENQKRIEKLEEYITTSKQSLEEQKKLEGELTEEVEMAKRRIDEINKELNQVMEQLGDARIDRQESSRQQRKAEIMESIKRLYPGSVYGRLIDLCQPTQKKYQIAVTKVLGKNMDAIIVDSEKTGRDCIQYIKEQRGEPETFLPLDYLEVKPTDEKLRELKGAKLVIDVIRYEPPHIKKALQYACGNALVCDNVEDARRIAFGGHQRHKTVALDGTLFQKSGVISGGASDLKAKARRWDEKAVDKLKEKKERLTEELKEQMKAKRKEAELRQVQSQAHGLQMRLKYSQSDLEQTKTRHLALNLQEKSKLESELANFGPRINDIKRIIQSREREMKDLKEKMNQVEDEVFEEFCREIGVRNIREFEEEKVKRQNEIAKKRLEFENQKTRLGIQLDFEKNQLKEDQDKVHMWEQTVKKDENEIEKLKKEEQRHMKIIDETMAQLQDLKNQHLAKKSEVNDKNHEMEEIRKKLGGANKEMTHLQKEVTAIETKLEQKRSDRHNLLQACKMQDIKLPLSKGTMDDISQEEGSSQGEDSVSGSQRISSIYAREALIEIDYGDLCEDLKDAQAEEEIKQEMNTLQQKLNEQQSVLQRIAAPNMKAMEKLESVRDKFQETSDEFEAARKRAKKAKQAFEQIKKERFDRFNACFESVATNIDEIYKALSRNSSAQAFLGPENPEEPYLDGINYNCVAPGKRFRPMDNLSGGEKTVAALALLFAIHSYKPAPFFVLDEIDAALDNTNIGKVANYIKEQSTCNFQAIVISLKEEFYTKAESLIGVYPEQGDCVISKVLTFDLTKYPDANPNPNEQ

percent removed from the extract by anti-XSA2 (hSA2): ~75%
percent removed from the extract by anti-XSA1 (hSA1): ~25%
B2: hSMC3 (natural protein)
chain: MYIKQVIIQGFRSYRDQTIVDPFSSKHNVIVGRNGSGKSNFFYAIQFVLSDEFSHLRPEQRLALLHEGTGPRVISAFVEIIFDNSDNRLPIDKEEVSLRRVIGAKKDQYFLDKKMVTKNDVMNLLESAGFSRSNPYYIVKQGKINQMATAPDSQRLKLLREVAGTRVYDERKEESISLMKETEGKREKINELLKYIEERLHTLEEEKEELAQYQKWDKMRRALEYTIYNQELNETRAKLDELSAKRETSGEKSRQLRDAQQDARDKMEDIERQVRELKTKISAMKEEKEQLSAERQEQIKQRTKLELKAKDLQDELAGNSEQRKRLLKERQKLLEKIEEKQKELAETEPKFNSVKEKEERGIARLAQATQERTDLYAKQGRGSQFTSKEERDKWIKKELKSLDQAINDKKRQIAAIHKDLEDTEANKEKNLEQYNKLDQDLNEVKARVEELDRKYYEVKNKKDELQSERNYLWREENAEQQALAAKREDLEKKQQLLRAATGKAILNGIDSINKVLDHFRRKGINQHVQNGYHGIVMNNFECEPAFYTCVEVTAGNRLFYHIVDSDEVSTKILMEFNKMNLPGEVTFLPLNKLDVRDTAYPETNDAIPMISKLRYNPRFDKAFKHVFGKTLICRSMEVSTQLARAFTMDCITLEGDQVSHRGALTGGYYDTRKSRLELQKDVRKAEEELGELEAKLNENLRRNIERINNEIDQLMNQMQQIETQQRKFKASRDSILSEMKMLKEKRQQSEKTFMPKQRSLQSLEASLHAMESTRESLKAELGTDLLSQLSLEDQKRVDALNDEIRQLQQENRQLLNERIKLEGIITRVETYLNENLRKRLDQVEQELNELRETEGGTVLTATTSELEAINKRVKDTMARSEDLDNSIDKTEAGIKELQKSMERWKNMEKEHMDAINHDTKELEKMTNRQGMLLKKKEECMKKIRELGSLPQEAFEKYQTLSLKQLFRKLEQCNTELKKYSHVNKKALDQFVNFSEQKEKLIKRQEELDRGYKSIMELMNVLELRKYEAIQLTFKQVSKNFSEVFQKLVPGGKATLVMKKGDVEGSQSQDEGEGSGESERGSGSQSSVPSVDQFTGVGIRVSFTGKQGEMREMQQLSGGQKSLVALALIFAIQKCDPAPFYLFDEIDQALDAQHRKAVSDMIMELAVHAQFITTTFRPELLESADKFYGVKFRNKVSHIDVITAEMAKDFVEDDTTHG
